Assay results as given in patent US20230416410A1 (ZOETIS SERVICES, published 2023).

T1: CTLA4bG2b (canine; bovine, UniProt Q9XSI1 36-161, limits assumed)
T1 construct: No linker; also called bIgG2b wildtype (CTLA4 fusion); CTLA4 Fc bIgG2b wildtype
T1 sequence: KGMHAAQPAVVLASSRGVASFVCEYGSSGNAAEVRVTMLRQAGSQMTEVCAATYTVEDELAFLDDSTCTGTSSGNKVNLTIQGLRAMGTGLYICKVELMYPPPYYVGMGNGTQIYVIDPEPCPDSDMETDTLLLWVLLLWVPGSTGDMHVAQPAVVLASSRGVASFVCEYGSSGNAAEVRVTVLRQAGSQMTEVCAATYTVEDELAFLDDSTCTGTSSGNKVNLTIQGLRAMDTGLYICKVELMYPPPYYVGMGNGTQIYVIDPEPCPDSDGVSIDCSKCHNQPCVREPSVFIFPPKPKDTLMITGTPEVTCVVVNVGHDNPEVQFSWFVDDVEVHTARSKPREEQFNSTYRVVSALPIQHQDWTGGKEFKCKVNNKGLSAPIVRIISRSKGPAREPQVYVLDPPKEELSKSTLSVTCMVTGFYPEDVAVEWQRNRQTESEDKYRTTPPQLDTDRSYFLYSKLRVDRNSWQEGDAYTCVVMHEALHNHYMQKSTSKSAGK

T2: recombinant bovine FcgR2 (bovine, UniProt Q28110 43-225, limits assumed, biotin on the BAP tag (BirA))
T2 construct: also called bFcgR2; bFcgRII
T2 sequence: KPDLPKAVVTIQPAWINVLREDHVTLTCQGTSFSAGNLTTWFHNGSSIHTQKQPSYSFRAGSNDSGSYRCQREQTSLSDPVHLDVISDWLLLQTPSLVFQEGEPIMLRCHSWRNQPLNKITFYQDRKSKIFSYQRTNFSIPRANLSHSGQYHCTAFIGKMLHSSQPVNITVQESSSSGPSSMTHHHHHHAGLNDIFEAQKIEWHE

T3: recombinant bovine FcgR3 (bovine, UniProt P79107 17-208, limits assumed, biotin on the BAP tag (BirA))
T3 construct: also called bFcgR3; bFcgRIII
T3 sequence: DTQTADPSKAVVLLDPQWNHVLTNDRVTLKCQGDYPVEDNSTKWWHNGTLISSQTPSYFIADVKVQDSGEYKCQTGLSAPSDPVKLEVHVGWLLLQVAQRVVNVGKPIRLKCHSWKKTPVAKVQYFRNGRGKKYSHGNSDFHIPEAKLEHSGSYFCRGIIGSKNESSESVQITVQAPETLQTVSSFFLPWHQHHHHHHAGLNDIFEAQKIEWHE


Tests used:
CTLA4bG2a = molecular target: T4, CTLA4bG2a (canine; bovine, UniProt Q9XSI1 36-161, limits assumed); test: SPR Biacore, bFcg2R amine-coupled on CM5, pH 7.4, 15 C
T4 construct: No linker; also called bIgG2a wildtype (CTLA4 fusion); CTLA4 Fc bIgG2a wildtype

CTLA4bG2b = molecular target: T1, CTLA4bG2b; test: as above
[1] = molecular target: complement component C1q (in bovine complement preserved serum) (bovine, UniProt Q5E9E3 23-244; Q2KIV9 23-247); test: cell-based or functional assay
Chain of complement component C1q (in bovine complement preserved serum) (Q5E9E3 23-244, chain 1 of 2): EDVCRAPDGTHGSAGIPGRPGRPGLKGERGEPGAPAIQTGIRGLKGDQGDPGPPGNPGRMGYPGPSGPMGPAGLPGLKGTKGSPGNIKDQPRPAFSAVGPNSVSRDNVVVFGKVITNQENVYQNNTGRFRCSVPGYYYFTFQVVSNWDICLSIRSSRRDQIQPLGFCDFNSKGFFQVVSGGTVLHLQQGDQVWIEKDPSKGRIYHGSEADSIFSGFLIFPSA
Chain of complement component C1q (in bovine complement preserved serum) (Q2KIV9 23-247, chain 2 of 2): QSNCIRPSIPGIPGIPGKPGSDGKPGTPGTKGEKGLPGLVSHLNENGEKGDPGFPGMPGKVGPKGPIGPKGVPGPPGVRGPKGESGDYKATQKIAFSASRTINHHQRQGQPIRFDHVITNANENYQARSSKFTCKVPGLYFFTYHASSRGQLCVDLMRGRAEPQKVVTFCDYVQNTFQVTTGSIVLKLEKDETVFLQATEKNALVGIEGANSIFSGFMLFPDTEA

recombinant bovine FcgR2 = molecular target: T2, recombinant bovine FcgR2; test: SPR Biacore, biotinylated receptor on SA sensor, pH 7.4, 15 C
Protocol: (§1) A Biacore SPR binding assay was designed to test the affinity of bovine IgG subclasses to bFcgR1, bFcgR2 and bFcgR3. All reported KD's were measured by Biacore (Cytiva, Marlborough, MA, USA) using series S SA sensor. Biotinylated-bovine FcgR1, R2 and R3 were captured on the sensor surface using a modified SA capture method to reach the desired surface density. 10 mM HEPES, 150 mM NaCl, 3 mM EDTA, 0.05% v/v surfactant P20, pH7.4 buffer was used as the running and titration buffer. Various concentrations of bovine CTLA4-Fc fusions or mAbs were titrated and flowed over the receptor surface and affinities were determined using Biacore T200 Evaluation software (Cytiva, Marlborough, MA, USA) with 1:1 binding model. The method of double referencing has been applied where the reference flow cell was subtracted from the flow cell containing immobilized receptors and blank runs containing buffer only were subtracted out from all runs. Flow cells were regenerated using 10 mM Glycine pH1.5. Runs were performed at 15° C.
(§2) Biacore methods for bFcgR1, R2, and R3 were performed as described in Examples above. […] Although the two allotypes have different KDs for bFcgR2 and bFcgR3, both wildtype allotypes do bind. All of the mutations, bIgG3Win, bIgG3WinSAS, bIgG3SAS and bIgG3SAP for both the a and b allotypes knocked down binding to bFcgR1, bFcgR2 and bFcgR3 to negligible affinities. Thus, for knocking out receptor binding, the two allotypes compare similarly.

recombinant bovine FcgR1 = molecular target: T5, recombinant bovine FcgR1 (bovine, biotin on the BAP tag (BirA)); test: as above
T5 construct: also called bFcgR1; bFcgRI
Protocol: as §1, §2

recombinant bovine FcgR3 = molecular target: T3, recombinant bovine FcgR3; test: as above
Protocol: as §1, §2

| Kd (CTLA4bG2a) | Kd (CTLA4bG2b) | CDC EC50 Value [1] | Kd (recombinant bovine FcgR2) | Kd (recombinant bovine FcgR1) | Kd (recombinant bovine FcgR3) | Binder |
| --- | --- | --- | --- | --- | --- | --- |
| 41.7 nM | 31.4 nM |  |  |  |  | recombinant bovine Fcg2R (receptor, biotin on the BAP tag (BirA)) GTFPKPIIWAEPSSVVPLGSSVTILCQGPPNTKSFSLNKEGDSTPWNIHPSLEPWDKANFFISNVREQQAGRYHCSHFIGVNWSEPSEPLDLLVAGEEPAGRLRDRPSLSVRPSPSVAPGENVTLLCQSGNRTDTFLLSKEGAAHRPLRLRSQDQDGWYQAEFSLSPVTSAHGGTYRCYRSLSTNPYLLSQPSEPLALLVADYTMQNLIRMGLAASVLLLLGILLCQARHDHGGAREAARS |
|  |  | 0.028 µg/mL | 706 nM | 12.5 nM | 49.6 nM | CTLA4 Fc bIgG3b (Fc fusion, No linker; also called bIgG3b wildtype; CTLA4 Fc bIgG3b wildtype) DMHVAQPAVVLASSRGVASFVCEYGSSGNAAEVRVTVLRQAGSQMTEVCAATYTVEDELAFLDDSTCTGTSSGNKVNLTIQGLRAMDTGLYICKVELMYPPPYYVGMGNGTQIYVIDPEPCPDSDTARRPVPTTPKTTIPPGKPTTQESEVEKTPCQCSKCPEPLGGLSVFIFPPKPKDTLTISGTPEVTCVVVDVGQDDPEVQFSWFVDDVEVHTARTKPREEQFNSTYRVVSALRIQHQDWLQGKEFKCKVNNKGLPAPIVRTISRTKGQAREPQVYVLAPPREELSKSTLSLTCLITGFYPEEIDVEWQRNGQPESEDKYHTTAPQLDADGSYFLYSRLRVNKSSWQEGDHYTCAVMHEALRNHYKEKSISRSPGK |
